Results from the Immune Epitope Database (IEDB).
Blank lines part the entries; values can stand above or below the sequence they belong to.

What was measured:
[1] = target: HLA-A*26:01; assay: IEDB peptide-MHC binding, purified MHC/competitive/radioactivity; filed as Kd, often an IC50 or EC50 that approximates it; ≥ and ≤ were set here for values at or beyond the usual limits of such assays
[2] = target: HLA-A*23:01; assay: as above
[3] = target: HLA-A*24:02; assay: as above
[4] = target: HLA-A*29:02; assay: as above
[5] = target: HLA-A*30:02; assay: as above
[6] = target: HLA-A*01:01; assay: as above
[7] = target: HLA-A*02:01; assay: IEDB peptide-MHC binding, purified MHC/direct/fluorescence; filed as Kd, often an IC50 or EC50 that approximates it; ≥ and ≤ were set here for values at or beyond the usual limits of such assays
[8] = target: HLA-A*30:01; assay: IEDB peptide-MHC binding, purified MHC/competitive/radioactivity; filed as Kd, often an IC50 or EC50 that approximates it; ≥ and ≤ were set here for values at or beyond the usual limits of such assays
[9] = target: HLA-A*69:01; assay: IEDB peptide-MHC binding, purified MHC/direct/fluorescence; filed as Kd, often an IC50 or EC50 that approximates it; ≥ and ≤ were set here for values at or beyond the usual limits of such assays
[10] = target: HLA-A*03:01; assay: as above; conditions: source organism: Entamoeba histolytica HM-1:IMSS
[11] = source organism: Mammarenavirus machupoense
[12] = source organism: Dengue virus 4 Philippines/H241/1956
[13] = source organism: Dengue virus 2 Jamaica/1409/1983
[14] = source organism: Dengue virus 3 Martinique/1243/1999
[15] = source organism: Salmonella enterica subsp. enterica serovar Paratyphi A
[16] = source organism: SARS coronavirus Tor2
[17] = source organism: Dengue virus 4 Dominica/814669/1981
[18] = source organism: Lymphocytic choriomeningitis virus (strain Armstrong)
[19] = source organism: Encephalitozoon cuniculi

Sequence: AESLVGFLFY
Kd [1, 11]: ≥ 69.7 µM
Kd [2, 11]: ≥ 66.2 µM
Kd [3, 11]: ≥ 70.3 µM
Kd [4, 11]: 0.0976 µM
Kd [5, 11]: 0.45 µM
Kd [6, 11]: ≥ 52.1 µM

Sequence: AGGLLLAAY
Kd [5, 12]: 0.0597 µM

Sequence: AGPVSQHNY
Kd [5, 13]: 0.0232 µM

Kd ([7]; source organism: Homo sapiens): 12.7 µM
Sequence: ALPPPPPPP

Sequence: ALTLATGPIT
Kd [8, 14]: 0.159 µM

Sequence: AQLPRWVAT
Kd [9, 15]: 7 µM
Kd [7, 15]: 19.9 µM

Sequence: AWNSLEVEDY
Kd [5, 13]: 0.613 µM

Sequence: AYSKSLKELV
Kd [1, 11]: ≥ 69.7 µM
Kd [2, 11]: 16.3 µM
Kd [3, 11]: 2.64 µM
Kd [4, 11]: ≥ 57 µM
Kd [5, 11]: ≥ 26.7 µM
Kd [6, 11]: ≥ 70.4 µM

Sequence: CGSVGFNIDY
Kd [1, 16]: ≥ 20.7 µM
Kd [2, 16]: ≥ 70 µM
Kd [3, 16]: ≥ 70.3 µM
Kd [4, 16]: 0.774 µM
Kd [5, 16]: 0.371 µM
Kd [6, 16]: 7.3 µM

Sequence: CSRCLSLFY
Kd ([8]; source organism: Vaccinia virus WR): 0.0221 µM

Sequence: DFGSVGGLF
Kd [3, 17]: 2.64 µM

Sequence: DYFESFSSFF
Kd [2, 18]: 0.00472 µM
Kd [3, 18]: 0.011 µM
Kd [4, 18]: 0.000356 µM

Sequence: EISNMLNIM
Kd ([1]; source organism: Dengue virus 1 Singapore/S275/1990): 0.476 µM

Sequence: EISNMLSII
Kd [1, 14]: 3.37 µM

Sequence: EKMEALQRKY
Kd ([1]; source organism: Dengue virus 2 16681-PDK53): 6.38 µM

Sequence: EKTQAIDGEF
Kd [1, 17]: ≥ 69.7 µM

Sequence: EVEDYGFGM
Kd [1, 12]: 3.9 µM

Sequence: EWSVATFYL
Kd [1, 16]: ≥ 45.4 µM
Kd [2, 16]: 5.5 µM
Kd [3, 16]: 1.78 µM
Kd [4, 16]: ≥ 59.4 µM
Kd [5, 16]: ≥ 29.7 µM
Kd [6, 16]: ≥ 78.1 µM

Sequence: FFFVYENAF
Kd [1, 16]: 9.24 µM
Kd [2, 16]: ≥ 24 µM
Kd [3, 16]: ≥ 60.4 µM
Kd [4, 16]: ≥ 23.9 µM
Kd [5, 16]: ≥ 96.8 µM
Kd [6, 16]: 2.67 µM

Sequence: FMFGPTIYY
Kd [10]: 0.043 µM

Kd [9, 19]: ≥ 20 µM
Kd [7, 19]: 0.168 µM
Sequence: FMRSISDDA

Sequence: FSNSGADVLY
Kd [1, 16]: 3.56 µM
Kd [2, 16]: ≥ 70 µM
Kd [3, 16]: ≥ 70.3 µM
Kd [4, 16]: 0.0749 µM
Kd [5, 16]: 0.00914 µM
Kd [6, 16]: 0.0153 µM
